# Reference: patent publication US20250263469A1 (HOSPITAL FOR SICK CHILDREN, published 2025)
# T1: mouse FcRn (mouse, UniProt Q61559 22-297; P01887 21-119)
# T1 sequence (looked up) 1: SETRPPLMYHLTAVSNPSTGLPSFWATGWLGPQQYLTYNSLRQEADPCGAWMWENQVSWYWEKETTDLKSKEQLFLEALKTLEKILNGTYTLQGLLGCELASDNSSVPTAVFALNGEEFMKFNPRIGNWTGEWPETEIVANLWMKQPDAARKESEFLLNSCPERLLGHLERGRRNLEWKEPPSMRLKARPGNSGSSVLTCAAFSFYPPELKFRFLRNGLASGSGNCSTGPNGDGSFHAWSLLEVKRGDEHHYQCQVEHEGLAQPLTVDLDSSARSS
# T1 sequence (looked up) 2: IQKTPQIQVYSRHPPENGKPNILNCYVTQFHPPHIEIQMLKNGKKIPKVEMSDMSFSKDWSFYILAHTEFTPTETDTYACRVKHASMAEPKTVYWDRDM
# B1: mouse surrogate Multabody (HD37, mouse ferritin), LALAP Fc (other, not shown: a dimerising Fc or GST; large carriers; small tags and cut ends)
# chain 1: KPCPPCKCPAPNAAGGPSVFIFPPKIKDVLMISLSPIVTCVVVDVSEDDPDVQISWFVNNVEVHTAQTQTHREDYNSTLRVVSALPIQHQDWMSGKEFKCKVNNKDLGAPIERTISKPKGSVRAPQVYVLPPPEEEMTKKQVTLTCMVTDFMPEDIYVEWTNNGKTELNYKNTEPVLDSDGSYFMYSKLRVEKKNWVERNSYSCSVVHEGLHNHHTTKSFSRTPGKGGSSGSGSGSTGTSSSGTGTSAGTTGTSASTSGSGSGGGGGSGGGGSAGGTATAGASSGSGSSGSSSSGGTGKPCPPCKCPAPNAAGGPSVFIFPPKIKDVLMISLSPIVTCVVVDVSEDDPDVQISWFVNNVEVHTAQTQTHREDYNSTLRVVSALPIQHQDWMSGKEFKCKVNNKDLGAPIERTISKPKGSVRAPQVYVLPPPEEEMTKKQVTLTCMVTDFMPEDIYVEWTNNGKTELNYKNTEPVLDSDGSYFMYSKLRVEKKNWVERNSYSCSVVHEGLHNHHTTKSFSRTPGKSRASTASSASSGGGGGGSGGSGGSGGSMTSQIRQNYSTEVEAAVNRLVNLHLRASYTYLSLGFFFDRDDVALEGVGHFFRELAEEKREGAERLLEFQNDRGGRALFQDVQKPSQDEWGKTQEAMEAALAMEKNLNQALLDLHALGSARTDPHLCDFLESHYLDKEVKLIKKMGNHLTNLRRVAGPQPAQTGAPQGSLGEYLFERLTLKHD
# chain 2: MTSQIRQNYSTEVEAAVNRLVNLHLRASYTYLSLGFFFDRDDVALEGVGHFFRELAEEKREGAERLLEFQNDRGGRALFQDVQKPSQDEWGKTQEAMEAALAMEKNLNQALLDLHALGSARTDPHLCDFLESHYLDKEVKLIKKMGNHLTNLRRVAGPQPAQTGAPQGSLGEYLFERLTLKHD
# notes: also called mLALAP MB; Fc-modified MB (LALAP mutation)
# What was measured:
# [1] = biological target: T1, mouse FcRn
# [2] = biological target: T1, mouse FcRn; experiment: pH 5.6
binder,measurement,setting,value
B1,kon,[1],2.4e+06 M⁻¹ s⁻¹
same,Kd,[2],< 1 pM
same,koff,[2],< 1e-07 s⁻¹
